Tests used:
CC(=O)Cc1ccccc1 = experiment: purified protein; type: biochemical, Gordonia sp. TY-5; details: 100 µM NADPH, air-saturated 50 mM HEPES pH 7.5, 25 °C
GSTACMO [1] = target: T1, GSTACMO (Gordonia sp. TY-5, UniProt A1IHE6); experiment: flavin absorbance titration at […] nm, quadratic fit; type: binding
T1 construct: gene acmA; full-length with N-terminal GST tag kept (pGEX4T1), E. coli DH5alpha

GSTACMO [2] = target: T2, GSTACMO (Gordonia sp. TY-5, UniProt A1IHE6, H325K); experiment: flavin absorbance titration at […] nm, quadratic fit; type: binding
T2 construct: gene acmA; full-length with N-terminal GST tag kept (pGEX4T1), E. coli DH5alpha

ACMO [3] = target: T3, ACMO (Gordonia sp. TY-5, UniProt A1IHE6, H325K); experiment: NADPH oxidation at […] nm, competitive inhibition fit; type: biochemical; details: read-out: Measured values
T3 construct: gene acmA; full-length, codon-optimised gene in pGEX4T1, E. coli DH5alpha; N-terminal GST removed with thrombin; calculated mass 59,780 Da

ACMO [4] = target: T4, ACMO (Gordonia sp. TY-5, UniProt A1IHE6); experiment: as above; type: biochemical; details: read-out: Measured values
T4 construct: gene acmA; full-length, codon-optimised gene in pGEX4T1, E. coli DH5alpha; N-terminal GST removed with thrombin; calculated mass 59,780 Da

GSTACMO [5] = target: T1, GSTACMO; experiment: stopped-flow flavin reduction at […] nm, hyperbolic fit of kobs; type: biochemical; details: 50 mM HEPES pH 7.5, 20% glycerol, 25 °C, anaerobic; oxidized enzyme; text b56 prints 121; table labels it ACMO, done on GSTACMO; read-out: Measured values
purified protein [6] = substrate: O=C1CC2C=CCC12; experiment: purified protein; type: biochemical, Gordonia sp. TY-5; details: 100 µM NADPH, air-saturated 50 mM HEPES pH 7.5, 25 °C
purified protein [7] = substrate: O=C1CCCCC1; experiment: purified protein; type: biochemical, Gordonia sp. TY-5; details: 100 µM NADPH, air-saturated 50 mM HEPES pH 7.5, 25 °C
purified protein [8] = substrate: CCC(C)=O; experiment: purified protein; type: biochemical, Gordonia sp. TY-5; details: 100 µM NADPH
purified protein [9] = substrate: O=C1CCC1; experiment: purified protein; type: biochemical, Gordonia sp. TY-5; details: 100 µM NADPH, air-saturated 50 mM HEPES pH 7.5, 25 °C
purified protein [10] = substrate: CCCCCC(C)=O; experiment: purified protein; type: biochemical, Gordonia sp. TY-5; details: 100 µM NADPH, air-saturated 50 mM HEPES pH 7.5, 25 °C
purified protein [11] = substrate: O=C1CCCC1; experiment: purified protein; type: biochemical, Gordonia sp. TY-5; details: 100 µM NADPH, air-saturated 50 mM HEPES pH 7.5, 25 °C
purified protein [12] = substrate: NC(=O)C1=CN([C@@H]2O[C@H](COP(=O)(O)OP(=O)(O)OC[C@H]3O[C@@H](n4cnc5c(N)ncnc54)[C@H](OP(=O)(O)O)[C@@H]3O)[C@@H](O)[C@H]2O)C=CC1; experiment: purified protein; type: biochemical, Gordonia sp. TY-5; details: 200 μM butanone
purified protein [13] = substrate: CCCC(C)=O; experiment: purified protein; type: biochemical, Gordonia sp. TY-5; details: 100 µM NADPH, air-saturated 50 mM HEPES pH 7.5, 25 °C
purified protein [14] = substrate: CC(=O)C(C)C; experiment: purified protein; type: biochemical, Gordonia sp. TY-5; details: 100 µM NADPH, air-saturated 50 mM HEPES pH 7.5, 25 °C
purified protein [15] = substrate: CC(C)=O; experiment: purified protein; type: biochemical, Gordonia sp. TY-5; details: 100 µM NADPH, air-saturated 50 mM HEPES pH 7.5, 25 °C
purified protein [16] = substrate: CC(C)C(=O)C(C)C; experiment: purified protein; type: biochemical, Gordonia sp. TY-5; details: 100 µM NADPH, air-saturated 50 mM HEPES pH 7.5, 25 °C
[17] = air-saturated 50 mM HEPES pH 7.5, 25 °C
[18] = 50 mM HEPES pH 7.5, 25 °C, GST tag state not told, table row identical to the NADPH row, possible duplication
[19] = 50 mM HEPES pH 7.5, 25 °C, GST tag state not told, table row identical to the butanone row, possible duplication

Q: For ACMO (Gordonia sp. TY-5), which Km (CC(=O)Cc1ccccc1) is on record?
A: 8.9 ± 1.5 µM

Q: And the kcat (CC(=O)Cc1ccccc1)?
A: 1 ± 0.1 s⁻¹

Q: And the kcat/Km (CC(=O)Cc1ccccc1)?
A: 112000 ± 20000 M⁻¹ s⁻¹

Q: How did the Kd (GSTACMO [1]) turn out when `NC(=O)c1ccc[n+]([C@@H]2O[C@H](COP(=O)(O)OP(=O)(O)OC[C@H]3O[C@@H](n4cnc5c(N)ncnc54)[C@H](OP(=O)(O)O)[C@@H]3O)[C@@H](O)[C@H]2O)c1` [NADP^+] was run?
A: 21.1 ± 4.1 µM

Q: And the Kd (GSTACMO [2])?
A: 0.5 ± 0.04 µM

Q: And the Ki (ACMO [3])?
A: 27 ± 6 µM

Q: And the Ki (ACMO [4])?
A: 166 ± 13 µM

Q: With `NC(=O)C1=CN([C@@H]2O[C@H](COP(=O)(O)OP(=O)(O)OC[C@H]3O[C@@H](n4cnc5c(N)ncnc54)[C@H](OP(=O)(O)O)[C@@H]3O)[C@@H](O)[C@H]2O)C=CC1` [NADPH] as the molecule, how does the Kd (GSTACMO [5]) read?
A: 120 ± 14 µM

B1: ACMO (Gordonia sp. TY-5) (protein)
chain: MSTTTLDAAVIGTGVAGLYELHMLREQGLEVRAYDKASGVGGTWYWNRYPGARFDSEAYIYQYLFDEDLYKGWSWSQRFPGQEEIERWLNYVADSLDLRRDISLETEITSAVFDEDRNRWTLTTADGDTIDAQFLITCCGMLSAPMKDLFPGQSDFGGQLVHTARWPKEGIDFAGKRVGVIGNGATGIQVIQSIAADVDELKVFIRTPQYALPMKNPSYGPDEVAWYKSRFGELKDTLPHTFTGFEYDFTDAWEDLTPEQRRARLEDDYENGSLKLWLASFAEIFSDEQVSEEVSEFVREKMRARLVDPELCDLLIPSDYGFGTHRVPLETNYLEVYHRDNVTAVLVRDNPITRIRENGIELADGTVHELDVIIMATGFDAGTGALTRIDIRGRDGRTLADDWSRDIRTTMGLMVHGYPNMLTTAVPLAPSAALCNMTTCLQQQTEWISEAIRHLRATGKTVIEPTAEGEEAWVAHHDELADANLISKTNSWYVGSNVPGKPRRVLSYVGGVGAYRDATLEAAAAGYKGFALS
notes: full-length, codon-optimised gene in pGEX4T1, E. coli DH5alpha; N-terminal GST removed with thrombin; calculated mass 59,780 Da
Q: What does the source list for B1?
A: Km (purified protein [6]): 6.7 ± 1.3 µM; kcat (purified protein [6]): 1.5 ± 0.1 s⁻¹; kcat/Km (purified protein [6]): 220000 ± 45000 M⁻¹ s⁻¹; Km (purified protein [7]): 2400 ± 400 µM; kcat (purified protein [7]): 3.6 ± 0.2 s⁻¹; kcat/Km (purified protein [7]): 1500 ± 300 M⁻¹ s⁻¹; Km (purified protein [8]; [17]): 0.34 ± 0.03 µM; kcat (purified protein [8]; [17]): 2.1 ± 0.1 s⁻¹; kcat/Km (purified protein [8]; [17]): 6e+06 ± 550000 M⁻¹ s⁻¹; Km (purified protein [9]): 1.5 ± 0.2 µM; kcat (purified protein [9]): 2 ± 0.1 s⁻¹; kcat/Km (purified protein [9]): 1.4e+06 ± 190000 M⁻¹ s⁻¹; Km (purified protein [10]): 1.5 ± 0.1 µM; kcat (purified protein [10]): 3.9 ± 0.1 s⁻¹; kcat/Km (purified protein [10]): 2.6e+06 ± 130000 M⁻¹ s⁻¹; Km (purified protein [11]): 120 ± 11 µM; kcat (purified protein [11]): 4.3 ± 0.1 s⁻¹; kcat/Km (purified protein [11]): 35000 ± 3200 M⁻¹ s⁻¹; Km (purified protein [12]; [17]): 6.7 ± 0.8 µM; kcat (purified protein [12]; [17]): 2 ± 0.1 s⁻¹; kcat/Km (purified protein [12]; [17]): 300000 ± 36000 M⁻¹ s⁻¹; Km (purified protein [13]): 0.37 ± 0.06 µM; kcat (purified protein [13]): 1.9 ± 0.1 s⁻¹; kcat/Km (purified protein [13]): 4.8e+06 ± 760000 M⁻¹ s⁻¹; Km (purified protein [14]): 4.4 ± 0.5 µM; kcat (purified protein [14]): 2.2 ± 0.1 s⁻¹; kcat/Km (purified protein [14]): 510000 ± 55000 M⁻¹ s⁻¹; Km (purified protein [15]): 170 ± 11 µM; kcat (purified protein [15]): 1.4 ± 0.2 s⁻¹; kcat/Km (purified protein [15]): 8500 ± 590 M⁻¹ s⁻¹; Km (purified protein [16]): 1500 ± 220 µM; kcat (purified protein [16]): 1.5 ± 0.1 s⁻¹; kcat/Km (purified protein [16]): 1000 ± 150 M⁻¹ s⁻¹

B2: GSTACMO (Gordonia sp. TY-5) (protein)
chain: MSTTTLDAAVIGTGVAGLYELHMLREQGLEVRAYDKASGVGGTWYWNRYPGARFDSEAYIYQYLFDEDLYKGWSWSQRFPGQEEIERWLNYVADSLDLRRDISLETEITSAVFDEDRNRWTLTTADGDTIDAQFLITCCGMLSAPMKDLFPGQSDFGGQLVHTARWPKEGIDFAGKRVGVIGNGATGIQVIQSIAADVDELKVFIRTPQYALPMKNPSYGPDEVAWYKSRFGELKDTLPHTFTGFEYDFTDAWEDLTPEQRRARLEDDYENGSLKLWLASFAEIFSDEQVSEEVSEFVREKMRARLVDPELCDLLIPSDYGFGTHRVPLETNYLEVYHRDNVTAVLVRDNPITRIRENGIELADGTVHELDVIIMATGFDAGTGALTRIDIRGRDGRTLADDWSRDIRTTMGLMVHGYPNMLTTAVPLAPSAALCNMTTCLQQQTEWISEAIRHLRATGKTVIEPTAEGEEAWVAHHDELADANLISKTNSWYVGSNVPGKPRRVLSYVGGVGAYRDATLEAAAAGYKGFALS
notes: full-length with N-terminal GST tag kept (pGEX4T1), E. coli DH5alpha
Q: How did the Km (purified protein [7]) turn out when B2 was run?
A: 2300 ± 380 µM

Q: And the kcat (purified protein [7])?
A: 2.8 ± 0.1 s⁻¹

Q: What about the kcat/Km (purified protein [7]) of the same molecule?
A: 1200 ± 200 M⁻¹ s⁻¹

B3: ACMO (Gordonia sp. TY-5; H325K) (protein)
chain: MSTTTLDAAVIGTGVAGLYELHMLREQGLEVRAYDKASGVGGTWYWNRYPGARFDSEAYIYQYLFDEDLYKGWSWSQRFPGQEEIERWLNYVADSLDLRRDISLETEITSAVFDEDRNRWTLTTADGDTIDAQFLITCCGMLSAPMKDLFPGQSDFGGQLVHTARWPKEGIDFAGKRVGVIGNGATGIQVIQSIAADVDELKVFIRTPQYALPMKNPSYGPDEVAWYKSRFGELKDTLPHTFTGFEYDFTDAWEDLTPEQRRARLEDDYENGSLKLWLASFAEIFSDEQVSEEVSEFVREKMRARLVDPELCDLLIPSDYGFGTKRVPLETNYLEVYHRDNVTAVLVRDNPITRIRENGIELADGTVHELDVIIMATGFDAGTGALTRIDIRGRDGRTLADDWSRDIRTTMGLMVHGYPNMLTTAVPLAPSAALCNMTTCLQQQTEWISEAIRHLRATGKTVIEPTAEGEEAWVAHHDELADANLISKTNSWYVGSNVPGKPRRVLSYVGGVGAYRDATLEAAAAGYKGFALS
notes: as for B1
Q: For B3, which Km (purified protein [8]; [18]) is on record?
A: 0.48 ± 0.05 µM

Q: And the kcat (purified protein [8]; [18])?
A: 1.6 ± 0.1 s⁻¹

Q: And the kcat/Km (purified protein [8]; [18])?
A: 3.25e+06 ± 320000 M⁻¹ s⁻¹

Q: And the Km (purified protein [12]; [19])?
A: 0.48 ± 0.05 µM

Q: And the kcat (purified protein [12]; [19])?
A: 1.6 ± 0.1 s⁻¹

Q: And the kcat/Km (purified protein [12]; [19])?
A: 3.25e+06 ± 320000 M⁻¹ s⁻¹
